B1: TPR 5TU (parent)
chain: GGAUCUUCUCGAUCUAACAAAAAAGACAAAUCUGCCACAAAGCUUGAGAGCAUCUUCGGAUGCAGAGGCGGCAGCCUUCGGUGGCGCGAUAGCGCCAACGUUCUCAACUAUGACACGCAAAACGCGUGCUCCGUUGAAUGGAGUUUAUCAUG

This sample holds only a part of the variants without activity.

The source of these data is the RNAGym collection of RNA variant scans (doi:10.1073/pnas.2313332121).

The variants in the data set derive from B1. Put plainly: polymerase ribozyme fitness, log enrichment relative to wild type (log ratio); higher = more active; in vitro selection for triplet polymerase activity. Summed up: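 Frozen incubation at −7 °C formed the core of a single, triplicate in vitro selection round applied to PCR-built, transcribed mutant libraries of each subunit of a heterodimeric triplet polymerase ribozyme. Extended constructs were gel-excised, captured with streptavidin beads and amplified by RT-PCR, and input and output libraries were Illumina-sequenced with a filter of ≥10 input reads and ≥1 read per output. Fitness is the logarithm of genotype enrichment relative to wild-type enrichment, with inverse-variance-weighted replicate averaging, and the logarithm is base 2.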
For A12U G92U C125U, the “polymerase ribozyme fitness (log ratio)” value is -1.06.

U13G G84U: the “polymerase ribozyme fitness (log ratio)” value is -3.13.

A12U C27G C36U C131U: the “polymerase ribozyme fitness (log ratio)” value was ≤ -4.2.

With C14G A28U G50A A119C A147U, the “polymerase ribozyme fitness (log ratio)” value was ≤ -4.2.

A12U A21U C87G C99U C125U: the “polymerase ribozyme fitness (log ratio)” value is ≤ -4.2.

Take A12G C85U: the “polymerase ribozyme fitness (log ratio)” value was determined as 0.000103.

With A12G C85G, the “polymerase ribozyme fitness (log ratio)” value was -1.96.

For the variant U13G G42A U56G G86U G133C G143U U146C, the “polymerase ribozyme fitness (log ratio)” value was ≤ -4.2.

For the variant A12U U53A G141U, the “polymerase ribozyme fitness (log ratio)” value is -1.08.

Take A12G U15G C69A C75U A106G A120G: the “polymerase ribozyme fitness (log ratio)” value was -2.52.

As for U13G C76A, the “polymerase ribozyme fitness (log ratio)” value is -2.11.

Consider A12G C93G A98G G141C, for which the “polymerase ribozyme fitness (log ratio)” value is -2.52.

As to A12G C35U U55G C87G A115U, the “polymerase ribozyme fitness (log ratio)” value was -4.17.

For the variant C14G A28C A47G U53A G84U, the “polymerase ribozyme fitness (log ratio)” value was ≤ -4.2.

As for A12G U144G, the “polymerase ribozyme fitness (log ratio)” value came out at 0.592.

Turning to A12G U55A C76A C93A A120G, the “polymerase ribozyme fitness (log ratio)” value is -3.73.

A12U C54A: the “polymerase ribozyme fitness (log ratio)” value was -1.78.

For the variant A12G A40G U44A U45A C93G A120U G141U, the “polymerase ribozyme fitness (log ratio)” value was ≤ -4.2.

On to C14G A20U U55A C85A C105U U134A, for which the “polymerase ribozyme fitness (log ratio)” value was ≤ -4.2.

On to A12G A21C A23G C76G C116G G133A, for which the “polymerase ribozyme fitness (log ratio)” value was ≤ -4.2.

In the case of C14G A24C C35U C57A G84U A97U, the “polymerase ribozyme fitness (log ratio)” value is ≤ -4.2.

Take A12U U33A C35G C57A U77C U101C U134A: the “polymerase ribozyme fitness (log ratio)” value was ≤ -4.2.

C14A A20U A60G A66U C93G: the “polymerase ribozyme fitness (log ratio)” value is ≤ -4.2.

With C14A C76G C87A A119G A138C U148A, the “polymerase ribozyme fitness (log ratio)” value was ≤ -4.2.

Regarding C14G A26G U56G A73U G143A, the “polymerase ribozyme fitness (log ratio)” value is ≤ -4.2.

Turning to U13A A24U C87A C123A, the “polymerase ribozyme fitness (log ratio)” value was ≤ -4.2.

Turning to A12U C14A G42A C96G U111G A122U, the “polymerase ribozyme fitness (log ratio)” value is ≤ -4.2.

Turning to A12G A89C C96G, the “polymerase ribozyme fitness (log ratio)” value was -1.66.

Turning to C14G A20U, the “polymerase ribozyme fitness (log ratio)” value was -2.37.

As to A12G G48A G71A G86A G126U C131A G140U C149A A150G, the “polymerase ribozyme fitness (log ratio)” value is ≤ -4.2.

Consider A12U U56C G59A G88C, for which the “polymerase ribozyme fitness (log ratio)” value was ≤ -4.2.

As to A12U G84A, the “polymerase ribozyme fitness (log ratio)” value was -1.05.

In the case of C14A U55A C75U A120U, the “polymerase ribozyme fitness (log ratio)” value is -2.39.

Turning to C14G C35A G42C A66G C96G G117U, the “polymerase ribozyme fitness (log ratio)” value was ≤ -4.2.

Regarding A12G A28C C79U U82C G86U G88A A106U C129U U148G G152U, the “polymerase ribozyme fitness (log ratio)” value is ≤ -4.2.

Regarding U13A A22U A89G C95A, the “polymerase ribozyme fitness (log ratio)” value is -1.67.

For the variant U13G C14G A20U A37G A47C A49U C99U C149U, the “polymerase ribozyme fitness (log ratio)” value is ≤ -4.2.

In the case of A12U C14G A29C C32U U45A G80C, the “polymerase ribozyme fitness (log ratio)” value is ≤ -4.2.

Turning to U13G U33G U56A A60U G143U, the “polymerase ribozyme fitness (log ratio)” value was ≤ -4.2.

With U13G G50U C93U, the “polymerase ribozyme fitness (log ratio)” value is -3.9.

As to U13G C27A C36U A40C A60G A138G, the “polymerase ribozyme fitness (log ratio)” value is ≤ -4.2.

U13A A20U C35A G50A G83C C118G A119U C132U: the “polymerase ribozyme fitness (log ratio)” value is ≤ -4.2.

With A12U G48U U53A C54G G71A C75G G86A C95U A119C, the “polymerase ribozyme fitness (log ratio)” value was ≤ -4.2.

As to U13G A91U, the “polymerase ribozyme fitness (log ratio)” value was ≤ -4.2.

On to A12U G84C C93U G140A, for which the “polymerase ribozyme fitness (log ratio)” value was ≤ -4.2.

With C14A A20U C85A U109G, the “polymerase ribozyme fitness (log ratio)” value is ≤ -4.2.

For the variant U13A C76U C105G C114U, the “polymerase ribozyme fitness (log ratio)” value was ≤ -4.2.

On to U13A G74C C93U G124A, for which the “polymerase ribozyme fitness (log ratio)” value was ≤ -4.2.

As for U13C U31G C32G C76U C131G, the “polymerase ribozyme fitness (log ratio)” value was ≤ -4.2.

A12G A29C C35G C95A C118A G133C: the “polymerase ribozyme fitness (log ratio)” value is ≤ -4.2.

Consider A12G U33C A73G U130G, for which the “polymerase ribozyme fitness (log ratio)” value is -3.56.

A12G C72U G88U A120U G141U: the “polymerase ribozyme fitness (log ratio)” value is ≤ -4.2.

On to C14G A19G C54U C76G U82G A119G G128C U134C, for which the “polymerase ribozyme fitness (log ratio)” value is ≤ -4.2.

Take C14A G58C: the “polymerase ribozyme fitness (log ratio)” value is -1.28.

Consider C14A G58U, for which the “polymerase ribozyme fitness (log ratio)” value was -1.88.

Regarding U13G A19C A29G G50C U127C, the “polymerase ribozyme fitness (log ratio)” value is ≤ -4.2.

Take C14G A20C A40C A89C: the “polymerase ribozyme fitness (log ratio)” value is -4.13.

Turning to C14A A16G U45A U55G U61A G65U G94C C96U U101G, the “polymerase ribozyme fitness (log ratio)” value was ≤ -4.2.

Regarding U13C A19U U55A G83A U111G, the “polymerase ribozyme fitness (log ratio)” value was ≤ -4.2.

For the variant C14G A29G A60G G94C C99U C114U, the “polymerase ribozyme fitness (log ratio)” value is ≤ -4.2.

Regarding A12U A20G A52U G141A, the “polymerase ribozyme fitness (log ratio)” value was -3.17.

In the case of U13G C27G C51A G84C A142G A147C, the “polymerase ribozyme fitness (log ratio)” value is ≤ -4.2.

As to A12U C18U A47G C85A C93A A98C A121U, the “polymerase ribozyme fitness (log ratio)” value is ≤ -4.2.

A12G U15A U55G C87G C99G C114A A119U: the “polymerase ribozyme fitness (log ratio)” value is ≤ -4.2.

For the variant U13G C79A C103U, the “polymerase ribozyme fitness (log ratio)” value is ≤ -4.2.

With A12U C36U G84U, the “polymerase ribozyme fitness (log ratio)” value was -4.11.

On to A12G A39C G84A A138C G143U U148C, for which the “polymerase ribozyme fitness (log ratio)” value was ≤ -4.2.

As for C14A C69G C75A G92U G140U, the “polymerase ribozyme fitness (log ratio)” value is ≤ -4.2.

A12G G25A C87G C116A U148G: the “polymerase ribozyme fitness (log ratio)” value was ≤ -4.2.

For U13C C18U, the “polymerase ribozyme fitness (log ratio)” value came out at 0.127.

Take A12G C14A C38U C43A U56A C85U C103G: the “polymerase ribozyme fitness (log ratio)” value was ≤ -4.2.

Take A12U C87U: the “polymerase ribozyme fitness (log ratio)” value was -1.1.

Turning to A12U A17C A22C A142C, the “polymerase ribozyme fitness (log ratio)” value is -2.44.

As for A12G C69A C96U A121C U127G A147U, the “polymerase ribozyme fitness (log ratio)” value was -4.02.

U13C G50U G59A U82C A121U G136A: the “polymerase ribozyme fitness (log ratio)” value was -1.14.

As to U13C C54U C87U, the “polymerase ribozyme fitness (log ratio)” value was -1.35.

On to A12G C63U G83C C95U U109A, for which the “polymerase ribozyme fitness (log ratio)” value was -2.16.

For A12G G59A A73G A91G, the “polymerase ribozyme fitness (log ratio)” value is -2.71.

As for A12G U13C C38U G58A A73U, the “polymerase ribozyme fitness (log ratio)” value was -1.35.

For the variant C14A G34A A40C U55G C87G C114G G117U A121C U139A, the “polymerase ribozyme fitness (log ratio)” value was ≤ -4.2.

In the case of A12U C14U A121U C125U, the “polymerase ribozyme fitness (log ratio)” value was -0.306.

Regarding A12G U13G A121G, the “polymerase ribozyme fitness (log ratio)” value was -2.27.

In the case of U13G C85U A106G G126U G140C, the “polymerase ribozyme fitness (log ratio)” value was -3.96.

Take A12U G59U G94C C114U: the “polymerase ribozyme fitness (log ratio)” value was -2.68.
